Bridges are numbered along the chain shown (N, C = ends). [ ]: non-standard residue; d: D form. hCys = N[C@@H](CCS)C(=O)O; Pra = C#CC[C@H](N)C(=O)O
target: T1, Fc tagged recombinant human EGFR (rhEGFR-Fc, R&D systems, Cat#344-ER-050) (human, UniProt P00533 25-645); test: SPR
T1 construct: Bought protein; also called apo-EGFR; not shown: Fc tag
Description: Surface plasmon resonance (SPR) binding studies were carried out on a Biacore T200 instrument (GE Healthcare). […] The contact time and resulting amount of rhEGFR-Fc capture was varied based on the nature of the analyte, namely whether it was a peptide or nanoparticle.
Peptide binding assays were carried out in 10 mM PBS buffer supplemented with 0.05% surfactant P20 and 5% DMSO by volume, at 25° C. Peptides were injected over the rhEGFR-Fc surface for 60 s, followed by dissociation (buffer injection) for 60 s and regeneration with a 10 s pulse of 3M MgCl₂. A fresh rhEGFR-Fc surface was generated for each concentration of each peptide tested. Peptide binding data was analyzed by fitting to a 1:1 Langmuir kinetic model to obtain the on-rate (kₐ), off-rate (kd) and/or equilibrium binding constant (KD) of the interaction.

Binder | KD/P2 KD | Result (affinity relative to KD of P2)
H-[Pra]CTWEVWGREC-NH2 (disulfide 2-11; SMILES C#CC[C@H](N)C(=O)N[C@H]1CSSC[C@@H](C(N)=O)NC(=O)[C@H](CCC(=O)O)NC(=O)[C@H](CCCNC(=N)N)NC(=O)CNC(=O)[C@H](Cc2c[nH]c3ccccc23)NC(=O)[C@H](C(C)C)NC(=O)[C@H](CCC(=O)O)NC(=O)[C@H](Cc2c[nH]c3ccccc23)NC(=O)[C@H]([C@@H](C)O)NC1=O) [P2-23] | 4.5 ratio | 
H-DPCTWEVWGRE[hCys]LQGG[Pra]G-NH2 (disulfide 3-12; SMILES C#CC[C@H](NC(=O)CNC(=O)CNC(=O)[C@H](CCC(N)=O)NC(=O)[C@H](CC(C)C)NC(=O)[C@@H]1CCSSC[C@H](NC(=O)[C@@H]2CCCN2C(=O)[C@@H](N)CC(=O)O)C(=O)N[C@@H]([C@@H](C)O)C(=O)N[C@@H](Cc2c[nH]c3ccccc23)C(=O)N[C@@H](CCC(=O)O)C(=O)N[C@@H](C(C)C)C(=O)N[C@@H](Cc2c[nH]c3ccccc23)C(=O)NCC(=O)N[C@@H](CCCNC(=N)N)C(=O)N[C@@H](CCC(=O)O)C(=O)N1)C(=O)NCC(N)=O) [P2-50] |  | 4.56 ratio
H-DPCTWEIWGRECLQGG[Pra]G-NH2 (disulfide 3-12; SMILES C#CC[C@H](NC(=O)CNC(=O)CNC(=O)[C@H](CCC(N)=O)NC(=O)[C@H](CC(C)C)NC(=O)[C@@H]1CSSC[C@H](NC(=O)[C@@H]2CCCN2C(=O)[C@@H](N)CC(=O)O)C(=O)N[C@@H]([C@@H](C)O)C(=O)N[C@@H](Cc2c[nH]c3ccccc23)C(=O)N[C@@H](CCC(=O)O)C(=O)N[C@@H]([C@@H](C)CC)C(=O)N[C@@H](Cc2c[nH]c3ccccc23)C(=O)NCC(=O)N[C@@H](CCCNC(=N)N)C(=O)N[C@@H](CCC(=O)O)C(=O)N1)C(=O)NCC(N)=O) [P2-36] | 3.48 ratio | 
H-DPCTWGVWGRECLQGG[Pra]G-NH2 (disulfide 3-12; SMILES C#CC[C@H](NC(=O)CNC(=O)CNC(=O)[C@H](CCC(N)=O)NC(=O)[C@H](CC(C)C)NC(=O)[C@@H]1CSSC[C@H](NC(=O)[C@@H]2CCCN2C(=O)[C@@H](N)CC(=O)O)C(=O)N[C@@H]([C@@H](C)O)C(=O)N[C@@H](Cc2c[nH]c3ccccc23)C(=O)NCC(=O)N[C@@H](C(C)C)C(=O)N[C@@H](Cc2c[nH]c3ccccc23)C(=O)NCC(=O)N[C@@H](CCCNC(=N)N)C(=O)N[C@@H](CCC(=O)O)C(=O)N1)C(=O)NCC(N)=O) [P2-33] | 42.7 ratio | 
H-DPCSWEVWGRECLQGG[Pra]G-NH2 (disulfide 3-12; SMILES C#CC[C@H](NC(=O)CNC(=O)CNC(=O)[C@H](CCC(N)=O)NC(=O)[C@H](CC(C)C)NC(=O)[C@@H]1CSSC[C@H](NC(=O)[C@@H]2CCCN2C(=O)[C@@H](N)CC(=O)O)C(=O)N[C@@H](CO)C(=O)N[C@@H](Cc2c[nH]c3ccccc23)C(=O)N[C@@H](CCC(=O)O)C(=O)N[C@@H](C(C)C)C(=O)N[C@@H](Cc2c[nH]c3ccccc23)C(=O)NCC(=O)N[C@@H](CCCNC(=N)N)C(=O)N[C@@H](CCC(=O)O)C(=O)N1)C(=O)NCC(N)=O) [P2-26] | 1.68 ratio | 
H-DPCTWRVWGRECLQGG[Pra]G-NH2 (disulfide 3-12; SMILES C#CC[C@H](NC(=O)CNC(=O)CNC(=O)[C@H](CCC(N)=O)NC(=O)[C@H](CC(C)C)NC(=O)[C@@H]1CSSC[C@H](NC(=O)[C@@H]2CCCN2C(=O)[C@@H](N)CC(=O)O)C(=O)N[C@@H]([C@@H](C)O)C(=O)N[C@@H](Cc2c[nH]c3ccccc23)C(=O)N[C@@H](CCCNC(=N)N)C(=O)N[C@@H](C(C)C)C(=O)N[C@@H](Cc2c[nH]c3ccccc23)C(=O)NCC(=O)N[C@@H](CCCNC(=N)N)C(=O)N[C@@H](CCC(=O)O)C(=O)N1)C(=O)NCC(N)=O) [P2-32] | 1.21 ratio | 
H-DPCTWELWGRECLQGG[Pra]G-NH2 (disulfide 3-12; SMILES C#CC[C@H](NC(=O)CNC(=O)CNC(=O)[C@H](CCC(N)=O)NC(=O)[C@H](CC(C)C)NC(=O)[C@@H]1CSSC[C@H](NC(=O)[C@@H]2CCCN2C(=O)[C@@H](N)CC(=O)O)C(=O)N[C@@H]([C@@H](C)O)C(=O)N[C@@H](Cc2c[nH]c3ccccc23)C(=O)N[C@@H](CCC(=O)O)C(=O)N[C@@H](CC(C)C)C(=O)N[C@@H](Cc2c[nH]c3ccccc23)C(=O)NCC(=O)N[C@@H](CCCNC(=N)N)C(=O)N[C@@H](CCC(=O)O)C(=O)N1)C(=O)NCC(N)=O) [P2-37] | 10.1 ratio | 
H-DPCTFEVWGRECLQGG[Pra]G-NH2 (disulfide 3-12) [P2-29] | 9.24 ratio | 
H-DPCVWEVWGRECLQGG[Pra]G-NH2 (disulfide 3-12; SMILES C#CC[C@H](NC(=O)CNC(=O)CNC(=O)[C@H](CCC(N)=O)NC(=O)[C@H](CC(C)C)NC(=O)[C@@H]1CSSC[C@H](NC(=O)[C@@H]2CCCN2C(=O)[C@@H](N)CC(=O)O)C(=O)N[C@@H](C(C)C)C(=O)N[C@@H](Cc2c[nH]c3ccccc23)C(=O)N[C@@H](CCC(=O)O)C(=O)N[C@@H](C(C)C)C(=O)N[C@@H](Cc2c[nH]c3ccccc23)C(=O)NCC(=O)N[C@@H](CCCNC(=N)N)C(=O)N[C@@H](CCC(=O)O)C(=O)N1)C(=O)NCC(N)=O) [P2-25] | 1.1 ratio | 
H-ACTWEVWGRECGG[Pra]G-NH2 (disulfide 2-11; SMILES C#CC[C@H](NC(=O)CNC(=O)CNC(=O)[C@@H]1CSSC[C@H](NC(=O)[C@H](C)N)C(=O)N[C@@H]([C@@H](C)O)C(=O)N[C@@H](Cc2c[nH]c3ccccc23)C(=O)N[C@@H](CCC(=O)O)C(=O)N[C@@H](C(C)C)C(=O)N[C@@H](Cc2c[nH]c3ccccc23)C(=O)NCC(=O)N[C@@H](CCCNC(=N)N)C(=O)N[C@@H](CCC(=O)O)C(=O)N1)C(=O)NCC(N)=O) [P2-19] | 2.4 ratio | 
H-DPCTWEVWGRECGG[Pra]G-NH2 (disulfide 3-12; SMILES C#CC[C@H](NC(=O)CNC(=O)CNC(=O)[C@@H]1CSSC[C@H](NC(=O)[C@@H]2CCCN2C(=O)[C@@H](N)CC(=O)O)C(=O)N[C@@H]([C@@H](C)O)C(=O)N[C@@H](Cc2c[nH]c3ccccc23)C(=O)N[C@@H](CCC(=O)O)C(=O)N[C@@H](C(C)C)C(=O)N[C@@H](Cc2c[nH]c3ccccc23)C(=O)NCC(=O)N[C@@H](CCCNC(=N)N)C(=O)N[C@@H](CCC(=O)O)C(=O)N1)C(=O)NCC(N)=O) [P2-15] | 0.9 ratio | 
H-DACTWEVWGRECGG[Pra]G-NH2 (disulfide 3-12; SMILES C#CC[C@H](NC(=O)CNC(=O)CNC(=O)[C@@H]1CSSC[C@H](NC(=O)[C@H](C)NC(=O)[C@@H](N)CC(=O)O)C(=O)N[C@@H]([C@@H](C)O)C(=O)N[C@@H](Cc2c[nH]c3ccccc23)C(=O)N[C@@H](CCC(=O)O)C(=O)N[C@@H](C(C)C)C(=O)N[C@@H](Cc2c[nH]c3ccccc23)C(=O)NCC(=O)N[C@@H](CCCNC(=N)N)C(=O)N[C@@H](CCC(=O)O)C(=O)N1)C(=O)NCC(N)=O) [P2-18] | 1.6 ratio | 
H-CTWEVWGRECGG[Pra]G-NH2 (disulfide 1-10; SMILES C#CC[C@H](NC(=O)CNC(=O)CNC(=O)[C@@H]1CSSC[C@H](N)C(=O)N[C@@H]([C@@H](C)O)C(=O)N[C@@H](Cc2c[nH]c3ccccc23)C(=O)N[C@@H](CCC(=O)O)C(=O)N[C@@H](C(C)C)C(=O)N[C@@H](Cc2c[nH]c3ccccc23)C(=O)NCC(=O)N[C@@H](CCCNC(=N)N)C(=O)N[C@@H](CCC(=O)O)C(=O)N1)C(=O)NCC(N)=O) [P2-17] | 0.4 ratio | 
H-CTWEVWGRECLQGG[Pra]G-NH2 (disulfide 1-10; SMILES C#CC[C@H](NC(=O)CNC(=O)CNC(=O)[C@H](CCC(N)=O)NC(=O)[C@H](CC(C)C)NC(=O)[C@@H]1CSSC[C@H](N)C(=O)N[C@@H]([C@@H](C)O)C(=O)N[C@@H](Cc2c[nH]c3ccccc23)C(=O)N[C@@H](CCC(=O)O)C(=O)N[C@@H](C(C)C)C(=O)N[C@@H](Cc2c[nH]c3ccccc23)C(=O)NCC(=O)N[C@@H](CCCNC(=N)N)C(=O)N[C@@H](CCC(=O)O)C(=O)N1)C(=O)NCC(N)=O) [P2-16] | 2 ratio | 
H-[Pra]ACTWEVWGREC-NH2 (disulfide 3-12; SMILES C#CC[C@H](N)C(=O)N[C@@H](C)C(=O)N[C@H]1CSSC[C@@H](C(N)=O)NC(=O)[C@H](CCC(=O)O)NC(=O)[C@H](CCCNC(=N)N)NC(=O)CNC(=O)[C@H](Cc2c[nH]c3ccccc23)NC(=O)[C@H](C(C)C)NC(=O)[C@H](CCC(=O)O)NC(=O)[C@H](Cc2c[nH]c3ccccc23)NC(=O)[C@H]([C@@H](C)O)NC1=O) [P2-21] | 6.7 ratio | 
Ac-ACTWEVWGRECGG[Pra]G-NH2 (disulfide 2-11; SMILES C#CC[C@H](NC(=O)CNC(=O)CNC(=O)[C@@H]1CSSC[C@H](NC(=O)[C@H](C)NC(C)=O)C(=O)N[C@@H]([C@@H](C)O)C(=O)N[C@@H](Cc2c[nH]c3ccccc23)C(=O)N[C@@H](CCC(=O)O)C(=O)N[C@@H](C(C)C)C(=O)N[C@@H](Cc2c[nH]c3ccccc23)C(=O)NCC(=O)N[C@@H](CCCNC(=N)N)C(=O)N[C@@H](CCC(=O)O)C(=O)N1)C(=O)NCC(N)=O) [P2-20 (truncation, Table 12)] | 3 ratio | 

From patent US20170224620A1 (Pfizer, published 2017)
